system: Escherichia coli TOP10; assay: shrunken log2 fold change of peptide-encoding DNA abundance (4.5 h post-induction vs induction); higher = less antimicrobial activity (less host growth inhibition); conditions: time post-induction: 4.5 h; library: site-saturation at positions 5, 18, 19, 20
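Further: peptides expressed intracellularly from a pBAD plasmid library in pooled LB shake-flask culture, induced with 0.3% L-arabinose, DNA abundance read by NGS, three biological replicates, DESeq2 with apeglm shrinkage.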

With RRIRVRPPRLPRPRPRPMNFPRP as the sequence, how does the “shrunken log2 fold change” value read?
The value was -0.349.

RRIRCRPPRLPRPRPRPRTSPRP was tested. Which “shrunken log2 fold change” value did it give?
Its value is 0.00938.

Which “shrunken log2 fold change” value does the source give for RRIRMRPPRLPRPRPRPMGFPRP here?
The value was -0.0135.

For RRIRMRPPRLPRPRPRPLYVPRP, which “shrunken log2 fold change” value is on record?
Its value is -0.111.

Which “shrunken log2 fold change” value does the source give for RRIRNRPPRLPRPRPRPRWCPRP here?
The value was 0.169.

For RRIRGRPPRLPRPRPRPTFNPRP, which “shrunken log2 fold change” value is on record?
The value was 0.31.

How did the “shrunken log2 fold change” value turn out when RRIRDRPPRLPRPRPRPLMVPRP was run?
Its value is -0.186.

RRIRSRPPRLPRPRPRPTFPPRP was tested. Which “shrunken log2 fold change” value did it give?
Its value is 0.0566.

With RRIRERPPRLPRPRPRPIHCPRP as the sequence, how does the “shrunken log2 fold change” value read?
The value was -0.118.

With RRIRHRPPRLPRPRPRPVRGPRP as the sequence, how does the “shrunken log2 fold change” value read?
The value was 0.328.

RRIRSRPPRLPRPRPRPKVYPRP was tested. Which “shrunken log2 fold change” value did it give?
The value was 0.226.

How did the “shrunken log2 fold change” value turn out when RRIRTRPPRLPRPRPRPQFAPRP was run?
The value was 0.0816.

RRIRTRPPRLPRPRPRPCLAPRP was tested. Which “shrunken log2 fold change” value did it give?
Its value is -0.307.

How did the “shrunken log2 fold change” value turn out when RRIRYRPPRLPRPRPRPIKRPRP was run?
Its value is -0.767.

How did the “shrunken log2 fold change” value turn out when RRIRDRPPRLPRPRPRPFWEPRP was run?
The value was 0.272.

RRIRYRPPRLPRPRPRPMGEPRP was tested. Which “shrunken log2 fold change” value did it give?
Its value is 0.0325.

How did the “shrunken log2 fold change” value turn out when RRIRMRPPRLPRPRPRPKGKPRP was run?
Its value is 0.288.

Which “shrunken log2 fold change” value does the source give for RRIRGRPPRLPRPRPRPNVLPRP here?
The value was -0.0548.

RRIRKRPPRLPRPRPRPIAFPRP was tested. Which “shrunken log2 fold change” value did it give?
Its value is -0.0784.

With RRIRVRPPRLPRPRPRPAIHPRP as the sequence, how does the “shrunken log2 fold change” value read?
Its value is -0.23.

With RRIRYRPPRLPRPRPRPFMCPRP as the sequence, how does the “shrunken log2 fold change” value read?
Its value is -0.233.

How did the “shrunken log2 fold change” value turn out when RRIRWRPPRLPRPRPRPPAKPRP was run?
The value was 0.56.

For RRIRNRPPRLPRPRPRPRFQPRP, which “shrunken log2 fold change” value is on record?
The value was 0.0932.

How did the “shrunken log2 fold change” value turn out when RRIRHRPPRLPRPRPRPEHLPRP was run?
Its value is 0.0981.

RRIRNRPPRLPRPRPRPVPVPRP was tested. Which “shrunken log2 fold change” value did it give?
Its value is -0.0667.

For RRIRGRPPRLPRPRPRPAWQPRP, which “shrunken log2 fold change” value is on record?
Its value is 0.395.

RRIRKRPPRLPRPRPRPMKTPRP was tested. Which “shrunken log2 fold change” value did it give?
Its value is 0.0431.

With RRIRKRPPRLPRPRPRPDEQPRP as the sequence, how does the “shrunken log2 fold change” value read?
The value was 2.64.

RRIRKRPPRLPRPRPRPWWPPRP was tested. Which “shrunken log2 fold change” value did it give?
Its value is 0.0304.

How did the “shrunken log2 fold change” value turn out when RRIRPRPPRLPRPRPRPFTFPRP was run?
The value was -0.189.

With RRIRNRPPRLPRPRPRPQVGPRP as the sequence, how does the “shrunken log2 fold change” value read?
The value was 0.00312.

How did the “shrunken log2 fold change” value turn out when RRIRSRPPRLPRPRPRPPVHPRP was run?
The value was 0.0185.

Which “shrunken log2 fold change” value does the source give for RRIRERPPRLPRPRPRPAIAPRP here?
Its value is 0.0488.

How did the “shrunken log2 fold change” value turn out when RRIRHRPPRLPRPRPRPELAPRP was run?
The value was -0.0268.

With RRIRARPPRLPRPRPRPKHGPRP as the sequence, how does the “shrunken log2 fold change” value read?
Its value is 0.246.

Which “shrunken log2 fold change” value does the source give for RRIRGRPPRLPRPRPRPSSIPRP here?
Its value is 0.0764.

With RRIRWRPPRLPRPRPRPMLVPRP as the sequence, how does the “shrunken log2 fold change” value read?
The value was 0.288.

Which “shrunken log2 fold change” value does the source give for RRIRERPPRLPRPRPRPQCFPRP here?
Its value is -0.702.

RRIRMRPPRLPRPRPRPPGTPRP was tested. Which “shrunken log2 fold change” value did it give?
Its value is 1.05.

For RRIRDRPPRLPRPRPRPNPNPRP, which “shrunken log2 fold change” value is on record?
The value was -0.136.

How did the “shrunken log2 fold change” value turn out when RRIRARPPRLPRPRPRPTQLPRP was run?
The value was 0.611.

RRIRARPPRLPRPRPRPCQGPRP was tested. Which “shrunken log2 fold change” value did it give?
Its value is -0.11.

Which “shrunken log2 fold change” value does the source give for RRIRWRPPRLPRPRPRPGNDPRP here?
Its value is 0.895.

With RRIRKRPPRLPRPRPRPWCNPRP as the sequence, how does the “shrunken log2 fold change” value read?
Its value is -0.204.

With RRIRMRPPRLPRPRPRPPGLPRP as the sequence, how does the “shrunken log2 fold change” value read?
The value was 0.702.

With RRIRTRPPRLPRPRPRPFRRPRP as the sequence, how does the “shrunken log2 fold change” value read?
Its value is -0.0209.

For RRIRCRPPRLPRPRPRPWIKPRP, which “shrunken log2 fold change” value is on record?
The value was -1.1.

How did the “shrunken log2 fold change” value turn out when RRIRVRPPRLPRPRPRPRYIPRP was run?
The value was -0.458.

For RRIRKRPPRLPRPRPRPRWPPRP, which “shrunken log2 fold change” value is on record?
The value was 0.528.

How did the “shrunken log2 fold change” value turn out when RRIRQRPPRLPRPRPRPTYEPRP was run?
The value was -0.0761.

RRIRSRPPRLPRPRPRPSPCPRP was tested. Which “shrunken log2 fold change” value did it give?
Its value is -0.04.

With RRIRVRPPRLPRPRPRPHRAPRP as the sequence, how does the “shrunken log2 fold change” value read?
Its value is 0.101.

How did the “shrunken log2 fold change” value turn out when RRIRHRPPRLPRPRPRPRLTPRP was run?
Its value is -0.176.

How did the “shrunken log2 fold change” value turn out when RRIRRRPPRLPRPRPRPFTAPRP was run?
The value was 0.128.

How did the “shrunken log2 fold change” value turn out when RRIRRRPPRLPRPRPRPKCEPRP was run?
Its value is 0.0268.

Which “shrunken log2 fold change” value does the source give for RRIRNRPPRLPRPRPRPYPEPRP here?
The value was -1.11.

How did the “shrunken log2 fold change” value turn out when RRIRKRPPRLPRPRPRPSHWPRP was run?
The value was 0.275.

How did the “shrunken log2 fold change” value turn out when RRIRRRPPRLPRPRPRPIPQPRP was run?
Its value is 0.336.

How did the “shrunken log2 fold change” value turn out when RRIRCRPPRLPRPRPRPIMIPRP was run?
The value was -0.566.

With RRIRMRPPRLPRPRPRPALYPRP as the sequence, how does the “shrunken log2 fold change” value read?
Its value is 0.765.

Which “shrunken log2 fold change” value does the source give for RRIRERPPRLPRPRPRPILYPRP here?
Its value is -0.615.

With RRIRKRPPRLPRPRPRPNMMPRP as the sequence, how does the “shrunken log2 fold change” value read?
Its value is 0.172.

RRIRWRPPRLPRPRPRPDHGPRP was tested. Which “shrunken log2 fold change” value did it give?
Its value is -0.104.

Which “shrunken log2 fold change” value does the source give for RRIRQRPPRLPRPRPRPFWRPRP here?
Its value is -0.044.

How did the “shrunken log2 fold change” value turn out when RRIRDRPPRLPRPRPRPPPFPRP was run?
Its value is 0.321.

RRIRERPPRLPRPRPRPAAAPRP was tested. Which “shrunken log2 fold change” value did it give?
The value was 0.436.

Which “shrunken log2 fold change” value does the source give for RRIRPRPPRLPRPRPRPWRAPRP here?
Its value is 0.185.

How did the “shrunken log2 fold change” value turn out when RRIRFRPPRLPRPRPRPRCPPRP was run?
The value was 0.262.

Which “shrunken log2 fold change” value does the source give for RRIRIRPPRLPRPRPRPYFYPRP here?
Its value is -0.469.

How did the “shrunken log2 fold change” value turn out when RRIRGRPPRLPRPRPRPAQSPRP was run?
Its value is 0.723.

How did the “shrunken log2 fold change” value turn out when RRIRWRPPRLPRPRPRPFNWPRP was run?
Its value is -0.0369.

For RRIRSRPPRLPRPRPRPYSRPRP, which “shrunken log2 fold change” value is on record?
The value was -0.00979.

RRIRVRPPRLPRPRPRPENRPRP was tested. Which “shrunken log2 fold change” value did it give?
Its value is -0.221.

For RRIRFRPPRLPRPRPRPDLYPRP, which “shrunken log2 fold change” value is on record?
Its value is -0.053.

Which “shrunken log2 fold change” value does the source give for RRIRSRPPRLPRPRPRPYKLPRP here?
Its value is -0.399.

RRIRPRPPRLPRPRPRPKQDPRP was tested. Which “shrunken log2 fold change” value did it give?
The value was 0.0659.

RRIRLRPPRLPRPRPRPRNMPRP was tested. Which “shrunken log2 fold change” value did it give?
Its value is -0.0899.

For RRIRWRPPRLPRPRPRPQNYPRP, which “shrunken log2 fold change” value is on record?
Its value is -0.445.

For RRIRIRPPRLPRPRPRPYYAPRP, which “shrunken log2 fold change” value is on record?
Its value is -0.949.

How did the “shrunken log2 fold change” value turn out when RRIRPRPPRLPRPRPRPSMPPRP was run?
Its value is -0.208.

Which “shrunken log2 fold change” value does the source give for RRIRYRPPRLPRPRPRPSGCPRP here?
Its value is -0.264.

For RRIRKRPPRLPRPRPRPWTVPRP, which “shrunken log2 fold change” value is on record?
Its value is -1.8.

RRIRPRPPRLPRPRPRPDLFPRP was tested. Which “shrunken log2 fold change” value did it give?
The value was 0.0947.

How did the “shrunken log2 fold change” value turn out when RRIRWRPPRLPRPRPRPQTHPRP was run?
Its value is 1.

For RRIRDRPPRLPRPRPRPSMQPRP, which “shrunken log2 fold change” value is on record?
Its value is -0.157.

With RRIRARPPRLPRPRPRPWIQPRP as the sequence, how does the “shrunken log2 fold change” value read?
Its value is -0.103.

RRIRDRPPRLPRPRPRPTCFPRP was tested. Which “shrunken log2 fold change” value did it give?
The value was 0.0704.

Which “shrunken log2 fold change” value does the source give for RRIRQRPPRLPRPRPRPMNTPRP here?
Its value is 0.0106.

For RRIRARPPRLPRPRPRPFCFPRP, which “shrunken log2 fold change” value is on record?
The value was 0.42.

How did the “shrunken log2 fold change” value turn out when RRIRFRPPRLPRPRPRPNAMPRP was run?
Its value is -0.191.

Which “shrunken log2 fold change” value does the source give for RRIRRRPPRLPRPRPRPFSMPRP here?
Its value is 0.0721.

Source: the supplement of paper PMC9112550, “Optimization of the antimicrobial peptide Bac7 by deep mutational scanning” (BMC Biology, 2022)
